This is an account of results in article PMC4353693.

For experiment [1], the target named is C-terminally CFP-tagged P1aABD (P1aABD-CFP). Put plainly: FRET or BRET. (In BRET a luciferase serves as donor, and the signal depends on an acceptor being close.)
The next experiment has as its target P1aABDΔ22. Put plainly: ITC.
Experiment [2] deals with actin binding domain of plectin isoform 1a (P1aABD). Put plainly: ITC. (Isothermal titration calorimetry measures the heat released or taken up as one component is titrated into another.)

For the substance “C-terminally yellow fluorescence protein (YFP)-tagged CaM (CaM-YFP) (from UniProt P0DP23 1-149) (natural protein)”, the FRET efficiency in experiment [1] is 19%.
Consider “calmodulin (CaM), full length, with Ca2+ (from UniProt P0DP23 1-149) (natural protein)”, for which, in the experiment with P1aABDΔ22, the Kd (in general, a measure of binding affinity in units of concentration) was 2600 nM. Also, in experiment [2], the KD calculated with the competitive binding model is 2.3 µM, the Kd was 4.2 µM and the apparent KD in the presence of β4Fn12 (displacement) is 7.7 µM.
In the case of “N-ter lobe of calmodulin (CaMNL) (from UniProt P0DP23 10-74) (domain or fragment)”, in experiment [2], the Kd came out at 10.5 µM.
